Source: US8541373B2, “BChE albumin fusions for the treatment of cocaine abuse” (priority 2009, dated 2013)

Tested on: cocaine
Experiment: Plasma cocaine, benzoylecgonine and ecgonine methyl ester (LC-MS) and cocaine PK after IV cocaine post-AlbuBChE
Format: in vivo, cynomolgus monkeys
Conditions: 0.2 mg/kg IM
Description: Blood was placed into K2EDTA blood collection tubes with esterase inhibitor diisopropylfluorophosphate (DFP). Tubes were inverted several times and placed on wet ice upon collection. Samples were centrifuged at 2-8° C. within 45 minutes of collection. The resultant plasma was recovered and a single 200 μL aliquot of plasma was placed into polypropylene tubes. Plasma samples were frozen over dry ice and stored at −75±15° C.
The following outline describes the LC-MS-based assay employed for the measurement of cocaine in plasma samples. Prior to MS analysis, plasma samples, calibration standards and controls were extracted using supported liquid extraction (SLE-ISOLUTE, Biotage). Twenty-five microliters of samples (25 μL) received 150 μl of 5% Ammonium hydroxide and 25 μl internal standard solution (Cocaine-d3). After mixing and transfer to SLE plate, samples were eluted with methylene chloride and evaporated to dryness. After resuspension in 50 μl of reconstitution solution—5% ACM in 10 mM ammonium acetate in water, 10 μl was injected onto Thermo Hypercarb column at 0.5 ml/min. Mobile phase was biphasic. Mass spectrophotometric detection was performed using Api 4000, APCI positive interface and Multiple Reaction Monitoring (MRM). Plasma concentrations of cocaine, benzoylecgonine and ecgonine methyl ester were determined using this assay.
When the data permits, pharmacokinetic parameter values for cocaine and its metabolites were determined using plasma concentration-times profiles for individual animals at all the study days of cocaine administration. […] Specifically the model for non-compartmental analysis with IV bolus input for cocaine and extravascular input for the metabolites.

[1] = cocaine 1 mg/kg IV 2 hr post-AlbuBChE
[2] = cocaine 1 mg/kg IV 2 hr post-AlbuBChE, 5 min after cocaine
[3] = cocaine 1 mg/kg IV 2 hr post-AlbuBChE, 10 min after cocaine
[4] = cocaine 1 mg/kg IV 2 hr post-AlbuBChE, 15 min after cocaine
[5] = cocaine 1 mg/kg IV 2 hr post-AlbuBChE, 20 min after cocaine
[6] = cocaine 1 mg/kg IV 2 hr post-AlbuBChE, 30 min after cocaine
[7] = cocaine 1 mg/kg IV 2 hr post-AlbuBChE, 40 min after cocaine
[8] = cocaine 1 mg/kg IV 2 hr post-AlbuBChE, 60 min after cocaine
[9] = cocaine 1 mg/kg IV 48 hr post-AlbuBChE
[10] = cocaine 1 mg/kg IV 48 hr post-AlbuBChE, 5 min after cocaine
[11] = cocaine 1 mg/kg IV 48 hr post-AlbuBChE, 10 min after cocaine
[12] = cocaine 1 mg/kg IV 48 hr post-AlbuBChE, 15 min after cocaine
[13] = cocaine 1 mg/kg IV 48 hr post-AlbuBChE, 20 min after cocaine
[14] = cocaine 1 mg/kg IV 48 hr post-AlbuBChE, 30 min after cocaine
[15] = cocaine 1 mg/kg IV 48 hr post-AlbuBChE, 40 min after cocaine
[16] = cocaine 1 mg/kg IV 48 hr post-AlbuBChE, 60 min after cocaine
[17] = cocaine 1 mg/kg IV 96 hr post-AlbuBChE
[18] = cocaine 1 mg/kg IV 96 hr post-AlbuBChE, 5 min after cocaine
[19] = cocaine 1 mg/kg IV 96 hr post-AlbuBChE, 10 min after cocaine
[20] = cocaine 1 mg/kg IV 96 hr post-AlbuBChE, 15 min after cocaine
[21] = cocaine 1 mg/kg IV 96 hr post-AlbuBChE, 20 min after cocaine
[22] = cocaine 1 mg/kg IV 96 hr post-AlbuBChE, 30 min after cocaine
[23] = cocaine 1 mg/kg IV 96 hr post-AlbuBChE, 40 min after cocaine
[24] = cocaine 1 mg/kg IV 96 hr post-AlbuBChE, 60 min after cocaine
[25] = cocaine 1 mg/kg IV 120 hr post-AlbuBChE
[26] = cocaine 1 mg/kg IV 120 hr post-AlbuBChE, 5 min after cocaine
[27] = cocaine 1 mg/kg IV 120 hr post-AlbuBChE, 10 min after cocaine
[28] = cocaine 1 mg/kg IV 120 hr post-AlbuBChE, 15 min after cocaine
[29] = cocaine 1 mg/kg IV 120 hr post-AlbuBChE, 20 min after cocaine
[30] = cocaine 1 mg/kg IV 120 hr post-AlbuBChE, 30 min after cocaine

AlbuBChE
Mean benzoylecgonine AUC(0-t) [1]: 3136 ng·min/mL
Mean cocaine AUC(0-t) [1]: 11878 ng·min/mL
Mean cocaine C0 [1]: 628 ng/mL
Ecgonine methyl ester plasma concentration (mean) [2]: 51.6 ng/mL
Mean benzoylecgonine plasma concentration [2]: 50.6 ng/mL
Mean cocaine plasma concentration [2]: 481 ng/mL
Ecgonine methyl ester plasma concentration (mean) [3]: 81.9 ng/mL
Mean benzoylecgonine plasma concentration [3]: 49.7 ng/mL
Mean cocaine plasma concentration [3]: 370 ng/mL
Ecgonine methyl ester plasma concentration (mean) [4]: 83.2 ng/mL
Mean benzoylecgonine plasma concentration [4]: 50.4 ng/mL
Mean cocaine plasma concentration [4]: 273 ng/mL
Ecgonine methyl ester plasma concentration (mean) [5]: 154 ng/mL
Mean benzoylecgonine plasma concentration [5]: 65.1 ng/mL
Mean cocaine plasma concentration [5]: 227 ng/mL
Ecgonine methyl ester plasma concentration (mean) [6]: 261 ng/mL
Mean benzoylecgonine plasma concentration [6]: 28.6 ng/mL
Mean cocaine plasma concentration [6]: 67.0 ng/mL
Ecgonine methyl ester plasma concentration (mean) [7]: 120 ng/mL
Mean benzoylecgonine plasma concentration [7]: 58.0 ng/mL
Mean cocaine plasma concentration [7]: 115 ng/mL
Ecgonine methyl ester plasma concentration (mean) [8]: 120 ng/mL
Mean benzoylecgonine plasma concentration [8]: 60.5 ng/mL
Mean cocaine plasma concentration [8]: 58.6 ng/mL
Mean benzoylecgonine AUC(0-t) [9]: 1989 ng·min/mL
Mean cocaine AUC % Extrap [9]: 15.1%
Mean cocaine AUC(0-t) [9]: 7713 ng·min/mL
Mean cocaine AUC(0-∞) [9]: 9094 ng·min/mL
Mean cocaine C0 [9]: 274 ng/mL
Mean cocaine CI [9]: 110 mL/min/kg
Mean cocaine Vss [9]: 3.503 L/kg
Mean cocaine t½ [9]: 21.2 min
Ecgonine methyl ester plasma concentration (mean) [10]: 21.1 ng/mL
Mean benzoylecgonine plasma concentration [10]: 27.3 ng/mL
Mean cocaine plasma concentration [10]: 235 ng/mL
Ecgonine methyl ester plasma concentration (mean) [11]: 19.5 ng/mL
Mean benzoylecgonine plasma concentration [11]: 29.4 ng/mL
Mean cocaine plasma concentration [11]: 203 ng/mL
Ecgonine methyl ester plasma concentration (mean) [12]: 23.9 ng/mL
Mean benzoylecgonine plasma concentration [12]: 29.0 ng/mL
Mean cocaine plasma concentration [12]: 187 ng/mL
Ecgonine methyl ester plasma concentration (mean) [13]: 25.8 ng/mL
Mean benzoylecgonine plasma concentration [13]: 28.2 ng/mL
Mean cocaine plasma concentration [13]: 146 ng/mL
Ecgonine methyl ester plasma concentration (mean) [14]: 33.9 ng/mL
Mean benzoylecgonine plasma concentration [14]: 37.1 ng/mL
Mean cocaine plasma concentration [14]: 121 ng/mL
Ecgonine methyl ester plasma concentration (mean) [15]: 50.7 ng/mL
Mean benzoylecgonine plasma concentration [15]: 36.9 ng/mL
Mean cocaine plasma concentration [15]: 77.8 ng/mL
Ecgonine methyl ester plasma concentration (mean) [16]: 37.0 ng/mL
Mean benzoylecgonine plasma concentration [16]: 35.6 ng/mL
Mean cocaine plasma concentration [16]: 43.2 ng/mL
Mean benzoylecgonine AUC(0-t) [17]: 3270 ng·min/mL
Mean cocaine AUC % Extrap [17]: 14.9%
Mean cocaine AUC(0-t) [17]: 11145 ng·min/mL
Mean cocaine AUC(0-∞) [17]: 13008 ng·min/mL
Mean cocaine C0 [17]: 451 ng/mL
Mean cocaine CI [17]: 78.1 mL/min/kg
Mean cocaine Vss [17]: 2.506 L/kg
Mean cocaine t½ [17]: 21.1 min
Ecgonine methyl ester plasma concentration (mean) [18]: 26.4 ng/mL
Mean benzoylecgonine plasma concentration [18]: 49.7 ng/mL
Mean cocaine plasma concentration [18]: 360 ng/mL
Ecgonine methyl ester plasma concentration (mean) [19]: 39.4 ng/mL
Mean benzoylecgonine plasma concentration [19]: 47.7 ng/mL
Mean cocaine plasma concentration [19]: 301 ng/mL
Ecgonine methyl ester plasma concentration (mean) [20]: 24.5 ng/mL
Mean benzoylecgonine plasma concentration [20]: 52.6 ng/mL
Mean cocaine plasma concentration [20]: 255 ng/mL
Ecgonine methyl ester plasma concentration (mean) [21]: 29.8 ng/mL
Mean benzoylecgonine plasma concentration [21]: 55.1 ng/mL
Mean cocaine plasma concentration [21]: 189 ng/mL
Ecgonine methyl ester plasma concentration (mean) [22]: 49.8 ng/mL
Mean benzoylecgonine plasma concentration [22]: 56.5 ng/mL
Mean cocaine plasma concentration [22]: 165 ng/mL
Ecgonine methyl ester plasma concentration (mean) [23]: 50.2 ng/mL
Mean benzoylecgonine plasma concentration [23]: 55.2 ng/mL
Mean cocaine plasma concentration [23]: 118 ng/mL
Ecgonine methyl ester plasma concentration (mean) [24]: 43.4 ng/mL
Mean benzoylecgonine plasma concentration [24]: 57.8 ng/mL
Mean cocaine plasma concentration [24]: 60.5 ng/mL
Mean benzoylecgonine AUC(0-t) [25]: 3583 ng·min/mL
Mean cocaine AUC % Extrap [25]: 16.1%
Mean cocaine AUC(0-t) [25]: 11611 ng·min/mL
Mean cocaine AUC(0-∞) [25]: 14059 ng·min/mL
Mean cocaine C0 [25]: 391 ng/mL
Mean cocaine CI [25]: 72.5 mL/min/kg
Mean cocaine Vss [25]: 2.338 L/kg
Mean cocaine t½ [25]: 23.0 min
Ecgonine methyl ester plasma concentration (mean) [26]: 18.9 ng/mL
Mean benzoylecgonine plasma concentration [26]: 55.1 ng/mL
Mean cocaine plasma concentration [26]: 349 ng/mL
Ecgonine methyl ester plasma concentration (mean) [27]: 28.9 ng/mL
Mean benzoylecgonine plasma concentration [27]: 46.9 ng/mL
Mean cocaine plasma concentration [27]: 312 ng/mL
Ecgonine methyl ester plasma concentration (mean) [28]: 27.6 ng/mL
Mean benzoylecgonine plasma concentration [28]: 53.1 ng/mL
Mean cocaine plasma concentration [28]: 267 ng/mL
Ecgonine methyl ester plasma concentration (mean) [29]: 34.5 ng/mL
Mean benzoylecgonine plasma concentration [29]: 55.9 ng/mL
Mean cocaine plasma concentration [29]: 218 ng/mL
Ecgonine methyl ester plasma concentration (mean) [30]: 136 ng/mL
Mean benzoylecgonine plasma concentration [30]: 64.2 ng/mL
Mean cocaine plasma concentration [30]: 160 ng/mL
